# Assay results as given in patent US20230287088A1.
# Read-outs that look alike come from different tables or passages of the source.
# What was measured:
# [1] = target: T1, SARS-CoV-2 spike protein (wild-type) on VSV pseudovirus (SARS-CoV-2), P0DTC2
# [2] = target: T1, SARS-CoV-2 spike protein (wild-type) on …; remark: listed apart in the source
# [3] = target: T1, SARS-CoV-2 spike protein (wild-type) on …; remark: listed apart in the source
# [4] = target: T1, SARS-CoV-2 spike protein (wild-type) on …; remark: listed apart in the source
# [5] = target: T1, SARS-CoV-2 spike protein (wild-type) on …; remark: listed apart in the source
# [6] = target: T1, SARS-CoV-2 spike protein (wild-type) on …; experiment: cell-based or functional assay
# [7] = target: T1, SARS-CoV-2 spike protein (wild-type) on …; remark: listed apart in the source
# [8] = target: T1, SARS-CoV-2 spike protein (wild-type) on …; remark: listed apart in the source
binder,measurement,setting,value
"P043.A.00095.D06 (protein sample ID 470) (antibody, V domains shown) VH: QEQLEESGGDLVKPEGSLTLTCTASGFSFSSNYWICWVRQAPGKGLEWIGCIYIGSGDTYYASWAKGRFTISKTSSTTVTLQMTSLTAADTATYFCARSYTPGSYYNMNLWGPGTLVTVSS VL: DVVMTQTPSSVSAAVGGTVTINCQASQQISNELSWYQQKSGQPPKLLIYDASDLASGVPSRFKGSGSGTEFTLTISDLESADAATYYCQSTGGASSDGNAFGGGTEVVVK","IC50 (pVNT, GFP-positive infected cells)",[1],0.28 µg/ml
same,"IC90 (pVNT, GFP-positive infected cells)",[1],2.28 µg/ml
same,"IC50, pVNT (luciferase RLU, VERO 76 cells), RiboMab in HEK 293T/17 supernatant",[2],189 ng/mL
same,"IC50 (read off the curve), Mouse #1",[3],0.05 µg/mL
same,"IC50 (read off the curve), Mouse #2",[3],0.05 µg/mL
same,"IC50, pVNT (luciferase RLU), RiboMab in mouse serum, biological replicate 1",[4],53.6 ng/mL
same,"IC50, pVNT (luciferase RLU), RiboMab in mouse serum, biological replicate 2",[4],51.8 ng/mL
same,"IC90, pVNT (luciferase RLU), RiboMab in mouse serum, biological replicate 1",[4],310 ng/mL
same,"IC90, pVNT (luciferase RLU), RiboMab in mouse serum, biological replicate 2",[4],284 ng/mL
same,IC50 (read off the curve),[5],0.2 µg/mL
same,"IC90, pVNT (luciferase), RiboMab 470 in HEK 293T/17 supernatant",[6],449 ng/mL
same,"IC90, pVNT (luciferase), RiboMab 470 in mouse serum",[6],297 ng/mL
P043.A.00092.C12 (antibody) heavy chain: QEELKETGGGLVQPGGSLTLSCKASGFDFSSYYMSWVRQAPGKGLEWIGVIYASKGSTDYASWVNGRFTISSDNAQNTVDLQMNSLTAADTATYYCARSKRFYTYGYAGYAYAHYYYGMDLWGPGTLVTVSS light chain: AIQMTQSPSSLAASVGDTVTITCKASEDIGYGLNWYQQKLGIAPKLLIYGADTLESGVPSRFSGSGSETDYTLTISSVQAEDAGIYYCQQGYSTPLTFGAGTKVEIK,"IC50 (pVNT, GFP-positive infected cells)",[1],0.31 µg/ml
same,"IC90 (pVNT, GFP-positive infected cells)",[1],3.79 µg/ml
"P043.A.00047.H08 (protein sample ID 447) (antibody, V domains shown) VH: QSLEESGGDLVKPGASLTLTCTASGFSFSSDGMCWVRQAPGKGLEWIACIAAGSSGSTYYATWAQGRFTISKSSSTTVTLQMTSLTAADTATYFCAGEDYTGNNYYALWGPGTLVTVSS VL: AIDMTQTPSPVSAVVGDTVTINCQASENIYSFLAWYQQKPGQPPKLLIYFASKLASGVPSRFKGSGSGTQFTLTISDVHSDDAAIYYCQQTGTYSDADNTFGGGTEVVVK","IC50 (pVNT, GFP-positive infected cells)",[1],3.9 µg/ml
same,"IC90 (pVNT, GFP-positive infected cells)",[1],18.2 µg/ml
same,"IC50, pVNT (luciferase RLU, VERO 76 cells), RiboMab in HEK 293T/17 supernatant",[2],169 ng/mL
same,"IC90, pVNT (luciferase RLU, VERO 76 cells), RiboMab in HEK 293T/17 supernatant",[2],7240 ng/mL
same,"IC50, pVNT (luciferase RLU), RiboMab in mouse serum, biological replicate 1",[4],740 ng/mL
same,"IC50, pVNT (luciferase RLU), RiboMab in mouse serum, biological replicate 2",[4],424 ng/mL
same,"IC90, pVNT (luciferase RLU), RiboMab in mouse serum, biological replicate 1",[4],6390 ng/mL
same,"IC90, pVNT (luciferase RLU), RiboMab in mouse serum, biological replicate 2",[4],4530 ng/mL
P043.A.00023.E05 (antibody) heavy chain: QSLEESGGRLVTPGTPLTLTCTVSGFSLSSYAMSWVRQAPGKGLEWIGIISSSGSTYYASWAKGRFTISKTSTTVDLKITSPTTEDTATYFCARDASSRGYYYYYGMDPWGPGTLVTVSS light chain: AIQMTQSPSSLAASVGDTVTITCKASEDIGYGLNWYQQKLGIAPKLLIYGANTLESGVPSRFSGSGSETDYTLTISSVQAEDAGIYYCQQGYSTPLTFGAGTKVEIK,"IC50 (pVNT, GFP-positive infected cells)",[1],3.75 µg/ml
same,"IC90 (pVNT, GFP-positive infected cells)",[1],16.6 µg/ml
P043.A.00017.E04 (antibody) heavy chain: QSVEESGGRLVTPGTPLTLTCTVSGFSLNNYAMNWVRQAPGKGLEWIGIISSSGNTYYANWAKGRFTISKTSTTVDLKITSPTTEDTATYFCARDSYPGYSPYYGMDPWGPGTLVTVSS light chain: AIQMTQSPSSLAASVGDTVTITCKASEDIAYGLNWYQQKLGITPKLLIYGANTLESGVPSRFSGSGSETHYTLTISSVQAEDAGIYYCQQGYNTPPTFGAGTKVEIK,"IC50 (pVNT, GFP-positive infected cells)",[1],1.19 µg/ml
same,"IC90 (pVNT, GFP-positive infected cells)",[1],5.35 µg/ml
"P043.A.00024.C11 (protein sample ID 451) (antibody, V domains shown) VH: QSVEESGGRLVTPGTPLTLTCTVSGFSLSSYAMSWVRQAPGKGLEWIGIISSSGTTYYASWAKGPFTISKTSTTVDLKITSPTTEDTATYFCARGGAGYGYAHYYGMDPWGPGTLVTVSS VL: AIQMTQSPSSLAASVGDTVTITCKASEDIGYGLNWYQQKLGIAPKLLIYGANTLESGVPSRFSGSGSETDYTLTISSVQAEDAGIYYCQQGYSTPLTFGAGTKVEIK","IC50 (pVNT, GFP-positive infected cells)",[1],4.74 µg/ml
same,"IC90 (pVNT, GFP-positive infected cells)",[1],20.6 µg/ml
same,"IC50, pVNT (luciferase RLU, VERO 76 cells), RiboMab in HEK 293T/17 supernatant",[2],406 ng/mL
same,"IC90, pVNT (luciferase RLU, VERO 76 cells), RiboMab in HEK 293T/17 supernatant",[2],3810 ng/mL
465: LC of anti-S1 antibody with a C-terminal fusion of a scFv of P043.A.00017.E07 (bispecific antibody) heavy: QMQLVQSGTEVKKPGESLKISCKGSGYGFITYWIGWVRQMPGKGLEWMGIIYPGDSETRYSPSFQGQVTISADKSINTAYLQWSSLKASDTAIYYCAGGSGISTPMDVWGQGTTVTVASTKGPSVFPLAPSSKSTSGGTAALGCLVKDYFPEPVTVSWNSGALTSGVHTFPAVLQSSGLYSLSSVVTVPSSSLGTQTYICNVNHKPSNTKVDKRVEPKSCDKTHTCPPCPAPEAAGGPSVFLFPPKPKDTLMISRTPEVTCVVVDVSHEDPEVKFNWYVDGVEVHNAKTKPREEQYNSTYRVVSVLTVLHQDWLNGKEYKCKVSNKALPAPIEKTISKAKGQPREPQVYTLPPSREEMTKNQVSLTCLVKGFYPSDIAVEWESNGQPENNYKTTPPVLDSDGSFFLYSKLTVDKSRWQQGNVFSCSVLHEALHSHYTQKSLSLSPGK light: not shown,"IC50 (pVNT, infected cells/16 fields)",[7],0.21 ng/ml
same,"IC90 (pVNT, infected cells/16 fields)",[7],1.05 ng/ml
467: LC of anti-S1 antibody with a C-terminal fusion of a scFv of P043.A.00024.C11 (bispecific antibody) heavy: QMQLVQSGTEVKKPGESLKISCKGSGYGFITYWIGWVRQMPGKGLEWMGIIYPGDSETRYSPSFQGQVTISADKSINTAYLQWSSLKASDTAIYYCAGGSGISTPMDVWGQGTTVTVASTKGPSVFPLAPSSKSTSGGTAALGCLVKDYFPEPVTVSWNSGALTSGVHTFPAVLQSSGLYSLSSVVTVPSSSLGTQTYICNVNHKPSNTKVDKRVEPKSCDKTHTCPPCPAPEAAGGPSVFLFPPKPKDTLMISRTPEVTCVVVDVSHEDPEVKFNWYVDGVEVHNAKTKPREEQYNSTYRVVSVLTVLHQDWLNGKEYKCKVSNKALPAPIEKTISKAKGQPREPQVYTLPPSREEMTKNQVSLTCLVKGFYPSDIAVEWESNGQPENNYKTTPPVLDSDGSFFLYSKLTVDKSRWQQGNVFSCSVLHEALHSHYTQKSLSLSPGK light: not shown,"IC50 (pVNT, infected cells/16 fields)",[7],0.46 ng/ml
same,"IC90 (pVNT, infected cells/16 fields)",[7],1.42 ng/ml
same,"IC50 (pVNT, infected cells/16 fields)",[8],0.4 µg/ml
same,"IC90 (pVNT, infected cells/16 fields)",[8],1.19 µg/ml
P043.A.00097.B02 (antibody) heavy chain: QELVESGGGLVQAGESLKLSCKASGIDFSSYGISWVRQAPGKGLEWIAYIYPGFGITNYANSVKGRFTISSDNAQNTVFLQMTSLTASDTATYFCTRAYASSSGYYIHYFNLWGPGTLVTVSS light chain: AIQMTQSPSSLAASVGDTVTITCKASEDIGYGLNWYQQKLGIAPKLLIYGANTLESGVPSRFSGSGSETDYTLTISSVQAEDAGIYYCQQAYSTPLTFGAGTKVEIK,"IC50 (pVNT, GFP-positive infected cells)",[1],7.84 µg/ml
same,"IC90 (pVNT, GFP-positive infected cells)",[1],24.2 µg/ml
